B1: Prelamin-A/C (Homo sapiens), P02545-1 (parent)
chain: METPSQRRATRSGAQASSTPLSPTRITRLQEKEDLQELNDRLAVYIDRVRSLETENAGLRLRITESEEVVSREVSGIKAAYEAELGDARKTLDSVAKERARLQLELSKVREEFKELKARNTKKEGDLIAAQARLKDLEALLNSKEAALSTALSEKRTLEGELHDLRGQVAKLEAALGEAKKQLQDEMLRRVDAENRLQTMKEELDFQKNIYSEELRETKRRHETRLVEIDNGKQREFESRLADALQELRAQHEDQVEQYKKELEKTYSAKLDNARQSAERNSNLVGAAHEELQQSRIRIDSLSAQLSQLQKQLAAKEAKLRDLEDSLARERDTSRRLLAEKEREMAEMRARMQQQLDEYQELLDIKLALDMEIHAYRKLLEGEEERLRLSPSPTSQRSRGRASSHSSQTQGGGSVTKKRKLESTESRSSFSQHARTSGRVAVEEVDEEGKFVRLRNKSNEDQSMGNWQIKRQNGDDPLLTYRFPPKFTLKAGQVVTIWAAGAGATHSPPTDLVWKAQNTWGCGNSLRTALINSTGEEVAMRKLVRSVTVVEDDEDEDGDDLLHHHHGSHCSSSGDPAEYNLRSRTVLCGTCGQPADKASASGSGAQVGGPISSGSSASSVTVTRSYRSVGGSGGGSFGDNLVTRSYLLGNSSPRTQSPQNCSIM
partner: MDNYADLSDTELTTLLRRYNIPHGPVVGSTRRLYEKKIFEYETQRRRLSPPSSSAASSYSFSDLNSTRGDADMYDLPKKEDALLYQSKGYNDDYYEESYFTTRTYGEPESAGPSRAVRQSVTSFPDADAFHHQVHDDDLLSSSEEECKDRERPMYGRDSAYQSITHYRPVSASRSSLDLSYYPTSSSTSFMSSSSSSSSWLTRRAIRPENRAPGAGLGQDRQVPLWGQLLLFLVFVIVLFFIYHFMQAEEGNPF

Variants of: B1
Details: with emd_human EMD

effect of a mutation on the interaction	Variant
with no effect	R482Q

From IntAct's records for PubMed 11313760
